This is an account of results in US20230203471A1, “METHOD AND PLATFORM FOR DISRUPTING INTRACELLULAR MICROTUBULES” (National Tsing Hua University, priority 2021, published 2023).

The test system of test [1] is intracellular microtubules in HeLa cells. Nature of the test: Live-cell imaging of MT disruption (MT filament area) in transfected HeLa cells. In kind it is cell-based. Here is the method:
The procedures of live-cell imaging are as follows. Live transfected cells cultured on poly(d-lysine)-coated glass coverslips (Hecht Assistent) were treated with either 100 nM rapamycin for rapid induction of protein dimerization and translocation or MT-targeting agents (10 µM nocodazole or 500 µM colchicine) during imaging. Live-cell imaging was conducted on a Nikon T1 inverted fluorescence microscope (Nikon) with a 60× oil objective (Nikon), a Prime camera (Photometrics), and 37° C., 5% CO2 heat stage (Live Cell Instrument). Rapid recruitment of proteins of interest (POIs) was imaged at 5- or 10-sec intervals, whereas the process of MT disruption was imaged at 1-min intervals. Images were obtained using Nikon NIS-Elements AR software and processed with Huygens Deconvolution Software (Scientific Volume Imaging). Image analysis was mainly performed with Nikon NIS-Elements AR software.
The procedures of measurement of MT filament area are as follows. The MT filaments in living cells were labeled with EMTB-CFP-FRB and imaged in real time (RAW image). The rolling ball correction was used to remove the cytosol background from the RAW images, which was carried out with the Nikon NIS-Elements AR software. Images were processed to generate the binary MT filament pattern via the Otsu threshold and analyzed by Fiji software.
FIGS. 2D and 2E show rapidly recruiting engineered spastins onto MTs. […] The top three layers are cells that simultaneously express EMTB-CFP-FRB and dNSpastin3Q-YFP-FKBP. The lower three layers are cells that simultaneously express EMTB-CFP-FRB and dNSpastin-YFP-FKBP-C2Lact. The color bar on the right indicates the brightness value represented by the color of the FRET signal. […] Data are shown as the mean ± S.E.M. It was noteworthy that MT disruption triggered by dNSpastin3Q-YFP-FKBP upon rapamycin treatment (T½ = 11.05 ± 1.52 min) was much faster than that of dNSpastin-YFP-FKBP-C2Lact upon rapamycin treatment (T½ = 53.08 ± 8.08 min), and treatment of two common MTAs, nocodazole (10 µM; T½ = 54.02 ± 10.29 min), colchicine (500 µM; T½ = 94.28 ± 8.63 min; see FIGS. 2F to 2J). […] In FIG. 2H, HeLa cells transfected with the indicated constructs were treated with nocodazole (Noc)([…], a type of MTA), colchicine (Col)(500 µM, a type of MTA), or rapamycin (Rapa)(100 nM); scale bar, 10 µm. […] Data are shown as the mean ± S.E.M. Student’s t-tests were performed, with the resulting p-values indicated.

Test [2] concerns the target MT-binding domain of ensconsin-cyan fluorescent protein-FKBP-rapamycin binding domain (EMTB-CFP-FRB) (Artificial Sequence). As to the kind of experiment: FRET live-cell imaging in co-transfected HeLa cells, 100 nM rapamycin.
In test [3] the target is intracellular microtubules (MTs).
Test [4] deals with cytosolic MTs in HeLa cells. Nature of the test: Immunofluorescence staining of α-tubulin in HeLa cells expressing spastin constructs. In kind it is cell-based. Conditions: expression in HeLa cells, α-tubulin intensity. Here is the method: The procedures of immunofluorescence staining are as follows. Cells cultured in borosilicate glass Lab-Tek eight-well chambers (Nunc) were fixed in 4% paraformaldehyde (Electron Microscopy Sciences) at room temperature for 15 min. Fixed cells were permeabilized with 0.1% Triton X-100 and then incubated in blocking solution (phosphate-buffered saline with 2% bovine serum albumin) for 30 min at room temperature. To label cytosolic MTs, primary ciliary membrane, and axonemal MTs, cells were incubated for 1 hr at room temperature with mouse antibody against α-tubulin (1:500; Sigma Aldrich, T6199), rabbit antibody against Arl13b (1:500; Proteintech, 17711-1-AP), mouse antibody against glutamylated tubulin (1:100; Adipogen, AG-20B-0020-C100), mouse antibody against acetylated tubulin (1:500; Sigma Aldrich, T7451), rat antibody against tyrosinated tubulin (1:100; Sigma Aldrich, MAB1864), and mouse antibody against detyrosinated tubulin (1:100; MERCK, AB3201) each of which was diluted in blocking solution. Cells were then washed with PBS and incubated for 1 hr with appropriate secondary antibodies (1:1000 dilution; Thermo Fisher) at room temperature.
Spastin is a MT-cleaving enzyme that is ubiquitous in nearly all eukaryotic cells. Expression of full-length spastin (SpastinFL-YFP; the amino acid sequence of spastin is SEQ ID NO: 1) and truncated spastin without the N-terminal 1-140 amino acids (dNSpastin-YFP) in HeLa cells removed significant amounts of cytosolic MTs, 47.45% and 42.86%, respectively, relative to YFP-transfected control cells (See FIGS. 2A to 2C). This means that both full-length spastin and truncated spastin without N-terminal 1-140 amino acids have the effect on disrupting microtubules. FIGS. 2A to 2C show the microtubule cleavage activity of artificially engineered spastin enzyme. […] The dotted line on the right indicates the periphery of the cell that expresses spastin. […] SpastinFL expressed in cells can disrupt the intracellular microtubules. Making SpastinFL be located in the cytosol, truncated spastin would also disrupt the intracellular microtubules, so it would also be located in the cytosol. […] The truncated spastin is used in the subsequent experiments. […] Compared with the YFP control group, both SpastinFL-YFP and dNSpastrin-YFP can disrupt about 40% of the microtubules. Thus the N-terminal fragment (1-140 amino acids) was dispensable for Spastin-mediated MT severing. […]

Test [5] has as its system EMTB-YFP-CIBN-labeled MTs in COS7 cells. Nature of the test: Blue-light-induced recruitment of Cry2 proteins onto EMTB-YFP-CIBN-labeled MTs and MT disassembly. In kind it is cell-based, African green monkey. Here is the method:
The procedures of photostimulation are as follows. COS7 cells were plated on poly(d-lysine)-coated coverslips and cultured in six-well plates (Thermo Scientific) for 48 hr. Before imaging, cells were incubated with SPY650-tubulin (1000-fold dilution; Spirochrome) at 37° C. for 1 hr. Local photostimulation was carried out with a fluorescence microscope (Nikon) equipped with a digital micromirror device, polygon 400 (MIGHTEX), and a 488-nm light source. Cells were illuminated with the blue light (5 sec on/1 sec off; 1.6 nW/µm^2) for the indicated duration. The mCherry and SPY650-tubulin were simultaneously imaged during photostimulation using Nikon element AR software.
The inventors next tried to use an optogenetic system to trigger MT disassembly in a sub-cellular region of interest during a specific period of time. Cryptochrome 2 (Cry2) (SEQ ID NO:14) and CIBN (N-terminal 170 amino acids of CIB1) (SEQ ID NO:15), two blue light-sensitive dimerizing partners, were used in our MT-manipulating system. Cry2, which was tagged with the red fluorescent protein mCherry (mCh—Cry2), was rapidly translocated onto EMTB—YFP—CIBN-labeled MTs only in regions illuminated with light (T½ = 34.6 ± 7.58 sec) and dissociated from MTs to the cytosol when the light was off (T½ = 28.2 ± 4.88 sec; see FIGS. 6A and 6B).
FIGS. 6A and 6B show using light to disassemble MTs in a reversible and location-specific manner. In FIG. 6A, COS7 cells co-transfected with EMTB—YFP—CIBN and mCh—Cry2 (red) were incubated with SPY650-tubulin (SPY650-tub) to visualize MTs; the cells were illuminated by blue light within a specified region (indicated by the dotted circle) for the indicated time period; scale bar, 10 µm.
The inventors then used light to control spastin-mediated MT disassembly in a spatially and temporally specific manner. dNSpastin3Q tagged with mCh-Cry2 was co-expressed with EMTB—YFP—CIBN in COS7 cells. MTs were labeled with SPY650-tubulin in these experiments.
FIGS. 6C and 6D show using light to disassemble MTs in a reversible and location-specific manner. In FIG. 6C, COS7 cells co-transfected with EMTB-YFP-CIBN and dNSpastin3Q-mCh—Cry2 were incubated with SPY650-tubulin to visualize MTs; the cells were illuminated by blue light as in FIG. 6A; scale bar, 10 µm. […] Data are shown as the mean ± S.E.M.

Chain of MT-binding domain of ensconsin-cyan fluorescent protein-FKBP-rapamycin binding domain (EMTB-CFP-FRB) (Artificial Sequence) (chain, as listed by the source): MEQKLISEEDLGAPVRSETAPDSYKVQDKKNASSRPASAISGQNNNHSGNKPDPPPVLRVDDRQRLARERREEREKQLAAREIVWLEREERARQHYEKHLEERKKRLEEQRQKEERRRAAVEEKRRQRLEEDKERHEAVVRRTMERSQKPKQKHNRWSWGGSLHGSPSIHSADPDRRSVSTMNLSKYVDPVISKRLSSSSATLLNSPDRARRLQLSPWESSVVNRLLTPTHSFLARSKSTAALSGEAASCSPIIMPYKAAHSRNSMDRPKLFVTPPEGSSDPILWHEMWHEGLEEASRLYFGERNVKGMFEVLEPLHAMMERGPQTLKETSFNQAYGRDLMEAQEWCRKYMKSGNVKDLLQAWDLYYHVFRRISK

Consider `COc1cc2c(c(OC)c1OC)-c1ccc(OC)c(=O)cc1[C@@H](NC(C)=O)CC2` [colchicine], for which the “microtubules removed within one hour” value in test [1] (500 µM colchicine) is 49%. In addition, the “time required to disrupt half of the intracellular microtubules” value in test [1] (colchicine 500 µM) was 94.28 ± 8.63 min. Further, the “T½ of MT disruption” value in test [1] (colchicine 500 µM, HeLa cells) is 1.571 ± 0.144 h.
“yellow fluorescent protein-tagged FKBP (YFP-FKBP)” came in with a T½ of translocation in test [2] of 5.73 s.

B1: YFP-tagged full-length spastin (SpastinFL-YFP) (enzyme)
chain: MAAKRSSGTAPAPASPSPPAPGPGGEAESVRVFHKQAFEYISIALRIDEEEKGQKEQAVEWYKKGIEELEKGIAVIVTGQGEQYERARRLQAKMMTNLVMAKDRLQLLEKLQPVLQFSKSQTDVYNESTNLTCRNGHLQSESGAVPKRKDPLTHASNSLPRSKTVLKSGSAGLSGHHRAPSCSGLSMVSGARPGPGPAATTHKGTPKPNRTNKPSTPTTAVRKKKDLKNFRNVDSNLANLIMNEIVDNGTAVKFDDIAGQELAKQALQEIVILPSLRPELFTGLRAPARGLLLFGPPGNGKTMLAKAVAAESNATFFNISAASLTSKYVGEGEKLVRALFAVARELQPSIIFIDEVDSLLCERREGEHDASRRLKTEFLIEFDGVQSAGDDRVLVMGATNRPQELDEAVLRRFIKRVYVSLPNEETRLLLLKNLLCKQGSPLTQKELAQLARMTDGYSGSDLTALAKDAALGPIRELKPEQVKNMSASEMRNIRLSDFTESLKKIKRSVSPQTLEAYIRWNKDFGDTTV
As for B1, the removal of cytosolic MTs (normalized intensity of α-tubulin) in test [3] was determined as 47.5%.

B2: YFP-tagged truncated spastin without the N-terminal 1-140 amino acids (dNSpastin-YFP) (enzyme)
chain: MESGAVPKRKDPLTHASNSLPRSKTVLKSGSAGLSGHHRAPSCSGLSMVSGARPGPGPAATTHKGTPKPNRTNKPSTPTTAVRKKKDLKNFRNVDSNLANLIMNEIVDNGTAVKFDDIAGQELAKQALQEIVILPSLRPELFTGLRAPARGLLLFGPPGNGKTMLAKAVAAESNATFFNISAASLTSKYVGEGEKLVRALFAVARELQPSIIFIDEVDSLLCERREGEHDASRRLKTEFLIEFDGVQSAGDDRVLVMGATNRPQELDEAVLRRFIKRVYVSLPNEETRLLLLKNLLCKQGSPLTQKELAQLARMTDGYSGSDLTALAKDAALGPIRELKPEQVKNMSASEMRNIRLSDFTESLKKIKRSVSPQTLEAYIRWNKDFGDTTV
Take B2: the “cytosolic MTs removed relative to YFP-transfected control cells” value in test [4] is 42.86%; in test [4] (listed as dNSpastrin-YFP), “about 40%”. Further, the removal of cytosolic MTs (normalized intensity of α-tubulin) in test [3] turned out to be 42.9%.

B3: dNSpastin3Q-mCh—Cry2: dNSpastin3Q tagged with mCh-Cry2 (protein)
chain: MESGAVPKRKDPLTHASNSLPRSKTVLKSGSAGLSGHHRAPSCSGLSMVSGARPGPGPAATTHKGTPKPNRTNKPSTPTTAVRQQQDLKNFRNVDSNLANLIMNEIVDNGTAVKFDDIAGQELAKQALQEIVILPSLRPELFTGLRAPARGLLLFGPPGNGKTMLAKAVAAESNATFFNISAASLTSKYVGEGEKLVRALFAVARELQPSIIFIDEVDSLLCERREGEHDASRRLKTEFLIEFDGVQSAGDDRVLVMGATNRPQELDEAVLRRFIKRVYVSLPNEETRLLLLKNLLCKQGSPLTQKELAQLARMTDGYSGSDLTALAKDAALGPIRELKPEQVKNMSASEMRNIRLSDFTESLKKIKRSVSPQTLEAYIRWNKDFGDTTVMKMDKKTIVWFRRDLRIEDNPALAAAAHEGSVFPVFIWCPEEEGQFYPGRASRWWMKQSLAHLSQSLKALGSDLTLIKTHNTISAILDCIRVTGATKVVFNHLYDPVSLVRDHTVKEKLVERGISVQSYNGDLLYEPWEIYCEKGKPFTSFNSYWKKCLDMSIESVMLPPPWRLMPITAAAEAIWACSIEELGLENEAEKPSNALLTRAWSPGWSNADKLLNEFIEKQLIDYAKNSKKVVGNSTSLLSPYLHFGEISVRHVFQCARMKQIIWARDKNSEGEESADLFLRGIGLREYSRYICFNFPFTHEQSLLSHLRFFPWDADVDKFKAWRQGRTGYPLVDAGMRELRATGWMHNRIRVIVSSFAVKFLLLPWKWGMKYFWDTLLDADLECDILGWQYISGSIPDGHELDRLDNPALQGAKYDPEGEYIRQWLPELARLPTEWIHHPWDAPLTVLKASGVELGTNYAKPIVDIDTARELLAKAISRTREAQIMIGAA
On to B3, for which the “reversibility in the dark” value in test [5] (COS7 cells placed back in the dark) is on record as “MT reassembly occurred”. The “light-induced MT disassembly” value in test [5] (COS7 cells, local blue light illumination, SPY650-tubulin) was “disassembly of MTs only in illuminated regions”.
